The values that follow come from paper PMC3365889.

By stoichiometry N is commonly meant a count of units in the complex or per binding partner.

Assay [1] addresses T1, human synaptogyrin 1, transcript variant 1b, construct 5 (N-terminal His tag with TEV cleavage site) (human), O43759.
T1 chain: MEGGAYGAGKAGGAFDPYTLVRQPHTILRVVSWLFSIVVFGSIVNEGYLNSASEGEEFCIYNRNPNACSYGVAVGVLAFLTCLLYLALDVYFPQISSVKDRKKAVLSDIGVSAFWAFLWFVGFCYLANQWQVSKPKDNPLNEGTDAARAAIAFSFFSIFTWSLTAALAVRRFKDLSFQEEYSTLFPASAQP
Kind of assay: SDS-PAGE (SDS-resistant dimer); SDS-PAGE of fractions from the large-scale IMAC purification in DDM.

Assay [2] concerns the target T1, human synaptogyrin 1, transcript …. Kind of assay: cross-linking; crude E. coli membranes, 2 mM DMS, room temperature, quenched with 200 mM Tris at time points; SDS-PAGE and Western blot with His probe. In general terms: A western blot detects proteins with antibodies after separation by electrophoresis.
The target is the same in assay [3]. Kind of assay: cross-linking; DDM-solubilised and purified synaptogyrin 1, 0.25 mM DSS, room temperature, quenched with 200 mM Tris at time points; SDS-PAGE and Western blot with His probe.
The target is the same in assay [4]. Kind of assay: cross-linking; Triton X-100-solubilised and purified synaptogyrin 1, 1 mM glutaraldehyde, room temperature, quenched with 200 mM Tris at time points; SDS-PAGE and Western blot with His probe.

B1: human synaptogyrin 1, transcript variant 1b, construct 5 (N-terminal His tag with TEV cleavage site), O43759-2 1-191 (natural protein)
chain: T1 chain
Regarding B1, the stoichiometry N in assay [1] was 2; in assay [2], greater than 4; in assay [3], greater than 4; in assay [4] it was greater than 4.
